Assay: soluble on expression in E. coli; label from the status in PepcDB or PDB records

Q: With “MSLNILIIGPSWVGDMMMSHSLYQQLKIQYPNCNIDVMAPNWCKPLLARMPEVRKAIEMPLGHGAFELGTRYRLGKSLREQYDMAIVLPNSLKSAFIPFFAKIVHRRGWKGESRYILLNDLRANKKDYPMMVQRYVALAFEKDVIPKADDIPVLKPYLTVEPAQQAETLKKFEKQTALLGERPIIGFCPGAEFGPAKRWPHYHYAKLAEMLITQGYAVALFGSAKDEPVGEEIRQALPEELREFCVNLAGKTNLNEAVDLIANCTAVVTNDSGLMHIAAAVNRPLIALYGPTSPQYTPPLSDKATIIRLIEGELIKVRKGDKEGGYHQSLIDITPEMALEKLNELLAKEGGSHHHHHH” as the sequence, how does the “soluble on expression in E. coli” value read?
A: soluble

Q: Which “soluble on expression in E. coli” value does the source give for “MNKVVLLCRPGFEKECAAEITDKAGQREIFGFARVKENAGYVIYECYQPDDGDKLIRELPFSSLIFARQWFVVGELLQHLPPEDRITPIVGMLQGVVEKGGELRVEVADTNESKELLKFCRKFTVPLRAALRDAGVLANYETPKRPVVHVFFIAPGCCYTGYSYSNNNSPFYMGIPRLKFPADAPSRSTLKLEEAFHVFIPADEWDERLANGMWAVDLGACPGGWTYQLVKRNMWVYSVDNGPMAQSLMDTGQVTWLREDGFKFRPTRSNISWMVCDMVEKPAKVAALMAQWLVNGWCRETIFNLKLPMKKRYEEVSHNLAYIQAQLDEHGINAQIQARQLYHDREEVTVHVRRIWAAVGGRRDER” here?
A: soluble

Q: For “MSLKVIATDMDGTLLDARGQLDLPRLEKILDQLDQRGIRFVIATGNEIHRMRQLLSPLVDRVVLVVANGARIFENNELIQAQTWDDAIVNKALTHFKGRACQDQFVVTGMKGDFVKEGTIFTDLESFMTPEMIEKFYQRMQFVDELTSDLFGGVLKMSMVVGEERLSSVLEEINALFDGRVRAVSSGYGCIDILQAGIHKAWGLEELLKRWDLKSQEIMAFGDSENDVEMLEMAGIAYAMENADEKAKAVATALAPANSQGGVYQVLENWLEKGEGHHHHHH”, which “soluble on expression in E. coli” value is on record?
A: soluble

Q: Which “soluble on expression in E. coli” value does the source give for “MGSDKIHHHHHHAAGLVVNDNDLRNDLAWLSDRGVIHLSLSTWPLSQEEIARALKKAKPSYSSEQVVLARINQRLSALKADFRVTGYTSTDQPGTPQGFGQTQPADSSLGLAFNNSGEWWDVHLQGNVEGGERISNGSRFNANGAYGAVKFWNQWLSFGQIPQWWGPGYEGSLIRGDAMRPMTGFLMQRAEQAAPETWWLRWVGPWQYQISASQMNQYTAVPHAKIIGGRFTFSPFQSLELGASRIMQWGGEGRPESFSSFWDGFTGHDNTGTDNEPGNQLAGFDFKFKLEPTLGWPVSFYGQMVGEDESGYLPSANMFLGGVEGHHGWGKDAVNWYVEAHDTRTNMSRTNYSYTHHIYKDGYYQQGYPLGDAMGGDGQLIAGKVELITEDNQRWSTRLVYAKVNPENQSINKAFPHADTLKGVQLGWSGDVYQSVRLNTSLWYTNANNSDSDDVGASAGIEIPFSL” here?
A: not soluble

Q: With “MDRAPVSSRRPCASQDPQRRPLCREEEGATPTALAVSSTTLGGRGGAHMCSCTVSSPNREGTCSSNILSYTLTHSTSPVVPWGCGRQPNHLQAPPRLAPLTESPIVARGFGPPPIAPAPLALAESSEHALCAPQLTFTAGAPGGTCLCSARSALPLLPFSSVLTASQRATPVPVWRRSKPLTRLPATTLGPTLSGNSGSPDDVVVALSDASMPKGETGEWMCAEASLQPSAAEPTPNAGSAVRHVDYQAAATQTGCVGSSLAAKVATESSQMALPDALAHLVEPPQGASAPSKTATDQLVNAPVGDIELRKRREEDSSDARASLSSALSSLGHPSNHNVHSSVDGVLWAHEAPEQPAYAHQHQLPAIFSQLVQDLLAAEPRADVEGDDDLLERWIQSWFENRCMTQPLQQSRSNSMKHLRTLQEAAVGAIANGAYVQGARSSNYVEPREKPAVDKNVGDATHAGPAARPAAGPSTTISASAAVTRTTTKSASAQLFPSSTAASPPHQYVPLTVEYSCSTLQSRMTSGASQRATSPPKPPQAQPLPVSPGTLHTAGASSTPGPPPHSAADGGGGVLAAVVGLSSPPQQPQQQPQPAKPLSGGPHLPAPASTRSMSSKQTVVAAAALAGGGEGDKGASGARPKLATTACAVFAHSSSSSAPKEAAHPHE” as the sequence, how does the “soluble on expression in E. coli” value read?
A: soluble

Q: With “RLQSRILAGLLHTVVRYRRKVVRDNLTRCFPEKSLQEIRRIERRFYYNFTYQILSSFKLLTYSQAQLRRHISFENLDVLIRLRAEGHPAILLMMGHFGNWEYFSGSQAIIKDLGLQIYQIFRPLKSTSSDRLMHRIRERFGSRGIAKHDVPRELLRLVRNPIPTETP” as the sequence, how does the “soluble on expression in E. coli” value read?
A: not soluble

Q: Which “soluble on expression in E. coli” value does the source give for “MSKRNTPQRRHNILALLNEQGEVSVDELAKRFETSEVTIRKDLAALESNGLLLRRYGGAITMPQELVSDIGQPVSLYKQAIARAAVQRIREHARIIIDSGSTTAAMIPELGLQPGLVVMTNSLNVANALSELEHEPVLLMTGGTWDPHSESFQGQVAEQVLRSYDFDQLFIGADGIDLARGTTTFNELLGLSRVMAEVAREVVVMVESDKIGRKIPNLELPWSSVHTLITDDRLPLEVRDQIQARGITLICAAVSLEHHHHHH” here?
A: soluble

Q: For “MAHHHHHHMANAELVDAGCFITQMNELLLIDPLYLNCAMTNYCNSYLSGKEELLPRERLNGIYFKNAKPGLWSSFAIRENSQAHLKKTAKQETETDAANRNDKNTYNNIRNEMVLSFVCFNNTNYMHQYLTVEEVDKLHWERMEPSEGHPGVGPTDKCSSTVDGDSKNEKVANFHNDRSELLPLENYFTNVLTIESGQAGLFCIDSIKNSADLLFQKHGMKNISSREQLDILFNQNMNDLYPWFDQICNLTMTSSVAVVDFMGMPIGCVCLSSSDCVVNYLCEVVRDEVTDEVWAIRVNFLAPLK”, which “soluble on expression in E. coli” value is on record?
A: not soluble

Q: Which “soluble on expression in E. coli” value does the source give for “MARTVFCEYLKKEAEGLDFQLYPGELGKRIFDSVSKQAWGEWIKKQTMLVNEKKLNMMNAEHRKLLEQEMVNFLFEGKDVHIEGYVPPSN” here?
A: not soluble

Q: With “MTNLKAVIPVAGLGMHMLPATKAIPKEMLPIVDKPMIQYIVDEIVAAGIKEILLVTHASKNAVENHFDTSYELESLLEQRVKRQLLAEVQSICPPGVTIMNVRQGEPLGLGHSILCARPAIGDNPFVVVLPDVVIDDASADPLRYNLAAMIARFNETGRSQVLAKRMPGDLSEYSVIQTKEPLDREGKVSRIVEFIEKPDQPQTLDSDIMAVGRYVLSADIWPELERTQPGAWGRIQLTDAIAELAKKQSVDAMLMTGDSYDCGKKMGYMQAFVKYGLRNLKEGAKFRKGIEKLLSE” as the sequence, how does the “soluble on expression in E. coli” value read?
A: not soluble

Q: Which “soluble on expression in E. coli” value does the source give for “MLTQYRQAQEDILRGRVKVRVVGQDKGGGVVMGEGVEIAPGARIEGPVLIGGACHIATGAVVGPFTVLGPYTRVEEGATVRRSVLWDNVYTGEGANVRGAVVCSRASLQRRVQVYEGAVIGDGTQVDAGAEVRPEVKVWPEKTLEHHHHHH” here?
A: not soluble

Q: Which “soluble on expression in E. coli” value does the source give for “MSLILPPIIAASLPPPPGPHAVGYTFLVHPPLSPFSHSSPTLKSTGKPAFQIEEIGYCLFYPGLPEGKRGKEWVSWVPDPFWGVIRGYERFLGGKGGVSWLVKPLGYIAGRLQMPLHPRAPLKPTDKPYPLLIFSHGLAGTRHTYSQYCAALASEGYVVLAVEHRDGSGPAVVLPPEGESKESRVLYYTGVNDISWAEGEEHPVTHARTLQLDIRTREVYEAYHSFKRLLSHEGDLSIKIEGLEGGHSFGGGTILHLLQSPPPSTLLPSLPAKQAISLDPWLEPLPAPSDILQTPLPSSLPPTLVINSAGFTEWPEHWEKLVEIMKGKGILITMIGIGHQAFSDFPLLSPRGYSHAHSMILKVHELSTAFLNKKLLSGAALAGKTPDKGDYEKDEDGVKIKGKAAMKDGDVLLHFADREEGHHHHHH” here?
A: soluble

Q: Which “soluble on expression in E. coli” value does the source give for “MKVEQIYTGCLAQGAYYITSMGEAAIIDPLREITPYLERLKRDGVKLKYILETHFHADFVSGHLDLSRATGAPIVYGPTAKPGFDAIVAEDNQIFELGNVKIRVLHTPGHTMESSCFLLIDENGREAALFSGDTLFLGDVGRPDLAQKAANLTQEELAGLLYDSLYTKILPLSDDIIVYPAHGAGSACGKNMMQETVDSLGNQKRVNYALNQPGKEAFIASVIEGLLPPPAYFGGNVAMNKMGYDSIDNVMERGLSALSATDFEAIAKTSDALVLDTRAPGVFAQGFIPRSINIGLDGDFAPWVGTMIVDVKQPLLLVADPGREQEVITRLSRVGFDQVLGYLDGGFDTWNASGKEIDHVECITANEFAERFCPEESLVFDVRKESEYAAEHVEGAYSRPLAYINDWIQDIPRDRHFYLHCIGGYRSMIASSILLSRGYRNFTDIEGGFASIAQTGVPKTDYVCQSKVSKKLEHHHHHH” here?
A: soluble

Q: With “MGSDKIHHHHHHMIISVINLKGGSGKTTTAMALATAAARHNRNVSVLDTDPQGDATTWAGDAEDAGETLPFTVDSANIGKLKRLRKTMADDELVIIDCPPAGNVVDVACDVSDFVIVPATQGPFELSHALETAESLDAAGKPYALLLLKVENNKLAGNAVNLIRERGASVFDASVPKRVGMQKVIGHAFPSNLNGYEDVYSELEEVIA” as the sequence, how does the “soluble on expression in E. coli” value read?
A: not soluble

Q: Which “soluble on expression in E. coli” value does the source give for “MKKQLDQLTAYTPGLSPESLKKQYGIRGELHKLASNENVYGPSPKVKTAIQSHLDELYYYPESGSPKLREAISQQLNVDASRILFGAGLDEVILMISRAVLSPGDKIITSESTFGQYYHNAIVESADVIQVPLKDGGFDLDGMLQQIDNKTSLIWLCNPNNPTGTYFSHDELFNFLKRVPSDIPVLIDEAYVEFVTADDFPDTLKLQEDFDNAFLLRTFSKAYGLAGLRVGYVIASEDAIEKWNIIRPPFNVTRISEYAAIAALEDQEYLKEVTQKNSFERDKFYQIPQSQHFLPSQANFVFVKTSRSQALYDALLNVGCITRLFPNGVRITIGLPEQNNKMIEVLKHFEY” here?
A: not soluble

Q: For KEKARAMRVNKRAPQMDWNRKREIFSNF, which “soluble on expression in E. coli” value is on record?
A: soluble

Q: Which “soluble on expression in E. coli” value does the source give for “MKFMQYTEKVMQHFMNPHNVGVIENPDGYGKVGNPSCGDIMEIFIKVDNNIISDVKFRTFGCASAIASSSISTDMIIGKTVEEALKLTNKQVVDELGGLPAVKMHCSVLAEEAIKMAIEDYISKRDGKLEHHHHHH” here?
A: soluble

Q: Which “soluble on expression in E. coli” value does the source give for “MELSSLTAVSPVDGRYGDKVSALRGIFSEYGLLKFRVQVEVRWLQKLAAHAAIKEVPAFAADAIGYLDAIVANFSEEDAARIKTIERTTNHDVKAVEYFLKEKVAEIPELHAVSEFIHFACTSEDINNLSHALMLKTARDEVILPYWRQLIDGIKDLAVQYRDIPLLSRTHGQPATPSTIGKEMANVAYRMERQHRQLNQVEILGKINGAVGNYNAHIAAYPEVDWHQFSEEFVTSLGIQWNPYTTQIEPHDYIAELFDCVARFNTILIDFDRDVWGYIALNHFKQKTIAGEIGSSTMPHKVNPIDFENSEGNLGLSNAVLQHLASKLPVSRWQRDLTDSTVLRNLGVGIGYALIAYQSTLKGVSKLEVNRDHLLDELDHNWEVLAEPIQTVMRRYGIEKPYEKLKELTRGKRVDAEGMKQFIDGLALPEEEKARLKAMTPANYIGRAITMVDELK” here?
A: not soluble

Q: Which “soluble on expression in E. coli” value does the source give for “MEEKLLVNLKENSYNIFIKKNILKNIGEEIKKIYFGNKIFIVTDENIAKLYLDKVKNNLSESGFEIKSLILKSGEETKSFNTLPKIYDSLLDFKLTRKDLIITLGGGVIGDLGGFAAATFLRGISFIQIPTSLLAQVDSSVGGKVGVDLERGKNLVGSFYQPKAVFIDPNVLLSLPEKFYRDGMAEVIKYGCIKDKTFFNKLLSLKNREEVMQHIEYIIHKCCFIKKTVVEADEKDFGDRMLLNFGHTLGHAIEKYYNFTGYTHGEAVAIGMYKITLESEKIGITKKGTSELIKSILMNYNLPYEIELRDNKSIVDAISLDKKNLGDTLKIILLKDIGESIIYNTTSKFFQEVR” here?
A: not soluble

Q: Which “soluble on expression in E. coli” value does the source give for “MSEKPLTKTDYLMRLRRCQTIDTLERVIEKNKYELSDNELAELTMNKLYDKIPSSVWKFIRLAVFYSAADHR” here?
A: not soluble

From the DeepSol protein solubility set
